Residue numbers refer to the chain shown, from its start. Names and notes keep the numbering of the source.
T1: Ffh (UniProt P0AGD7 1-453)
T1 construct: Ffh, the GTPase of the bacterial signal recognition particle; The methods of the fluorescence experiment name 'SRP' (2 uM), not Ffh alone; also called SRP GTPase; wild-type Ffh
T1 sequence (looked up): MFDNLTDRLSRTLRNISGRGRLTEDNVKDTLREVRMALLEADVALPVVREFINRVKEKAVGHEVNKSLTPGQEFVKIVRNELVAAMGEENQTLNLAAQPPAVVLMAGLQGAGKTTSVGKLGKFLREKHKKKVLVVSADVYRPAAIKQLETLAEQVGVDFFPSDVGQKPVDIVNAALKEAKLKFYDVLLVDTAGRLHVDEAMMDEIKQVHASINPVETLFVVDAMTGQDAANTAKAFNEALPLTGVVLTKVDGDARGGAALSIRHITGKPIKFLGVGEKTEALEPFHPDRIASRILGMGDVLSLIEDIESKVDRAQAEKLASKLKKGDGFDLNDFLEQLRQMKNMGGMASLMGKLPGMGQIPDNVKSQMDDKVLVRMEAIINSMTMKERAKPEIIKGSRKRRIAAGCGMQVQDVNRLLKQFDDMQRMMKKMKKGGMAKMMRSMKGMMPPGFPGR

B1: wild-type FtsY(47-497) (domain or fragment, Escherichia coli, UniProt P10121 47-497, looked up)
chain: ASEQAVEEQPQAHTEAEAETFAADVVEVTEQVAESEKAQPEAEVVAQPEPVVEETPEPVAIEREELPLPEDVNAEAVSPEEWQAEAETVEIVEAAEEEAAKEEITDEELETALAAEAAEEAVMVVPPAEEEQPVEEIAQEQEKPTKEGFFARLKRSLLKTKENLGSGFISLFRGKKIDDDLFEELEEQLLIADVGVETTRKIITNLTEGASRKQLRDAEALYGLLKEEMGEILAKVDEPLNVEGKAPFVILMVGVNGVGKTTTIGKLARQFEQQGKSVMLAAGDTFRAAAVEQLQVWGQRNNIPVIAQHTGADSASVIFDAIQAAKARNIDVLIADTAGRLQNKSHLMEELKKIVRVMKKLDVEAPHEVMLTIDASTGQNAVSQAKLFHEAVGLTGITLTKLDGTAKGGVIFSVADQFGIPIRYIGVGERIEDLRPFKADDFIEALFARED
notes: FtsY, SRP receptor, Escherichia coli, residues 47-497; also called SRP receptor; SR; source: expressed and purified as in Powers and Walter 1997; Peluso et al. 2001
B2: FtsY A335(140)W (domain or fragment, Escherichia coli, UniProt P10121 47-497, looked up)
chain: B1 chain with A289W
notes: FtsY, Escherichia coli, residues 47-497, with A335W; number in parentheses is the T. aquaticus number; also called mutant FtsY A335(140)W; Class II mutant; source: expressed and purified as wild-type FtsY (Powers and Walter 1997; Peluso et al. 2001)

What was measured:
[1] = target: T1, Ffh; assay: other fluorescence titration; tryptophan fluorescence of FtsY, time course at 335 nm; 1 uM mutant or wild-type FtsY, 2 uM SRP, 100 uM GppNHp, complex formation started by addition of Mg2+; conditions: both partners purified
[2] = target: T1, Ffh; assay: GTPase inhibition (competition) assay; mutant FtsY varied as inhibitor of the GTPase reaction of Ffh with subsaturating wild-type FtsY; under these conditions Ki equals Kd of the Ffh-FtsY(mt) complex; fit to equation 3; conditions: both partners purified

Binder	koff [1] [s⁻¹]	kon [1] [M⁻¹ s⁻¹]	Ki [2] [nM]
B1	0.0036	63600	–
B2	0.0042	63400	16

Reference: paper PMC517823, “Mechanism of Association and Reciprocal Activation of Two GTPases” (PLoS Biology, 2004)
